Source: patent EP2009026A1 (ThromboGenics N.V., dated 2008)
Residue numbers refer to the chain shown, from its start.

T1: murine VPAC1 receptor on mouse bone marrow-derived CD41/61+ megakaryocytes (mouse, UniProt P97751 31-459)
T1 construct: whole, on cells; Endogenous receptor; It was detected by immunoblot of megakaryocytes and targeted on living megakaryocytes in the cAMP assay; also called VPAC1 receptor on the murine megakaryocytes
T1 sequence (looked up): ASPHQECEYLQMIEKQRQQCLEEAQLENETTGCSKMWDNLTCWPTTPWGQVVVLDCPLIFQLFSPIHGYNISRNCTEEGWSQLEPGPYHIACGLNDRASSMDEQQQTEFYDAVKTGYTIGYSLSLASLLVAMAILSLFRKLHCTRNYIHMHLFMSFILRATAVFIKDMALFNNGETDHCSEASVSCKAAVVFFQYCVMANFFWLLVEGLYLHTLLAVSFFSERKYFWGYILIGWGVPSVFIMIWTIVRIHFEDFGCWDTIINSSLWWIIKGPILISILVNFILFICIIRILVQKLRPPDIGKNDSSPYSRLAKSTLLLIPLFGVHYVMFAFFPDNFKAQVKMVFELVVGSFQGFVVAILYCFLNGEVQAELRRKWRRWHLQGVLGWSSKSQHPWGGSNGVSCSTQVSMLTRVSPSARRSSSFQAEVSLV

T2: GST fusion protein of VPAC1 extracellular loop 2 (human)
T2 construct: also called isolated extracellular loop 2 of the VPAC1 receptor; not shown: GST (glutathione-S-transferase) fusion partner
T2 chain: IHFEDYGCWDTINSSLWW

T3: GST-fused VPAC1 variant 3-2 (amino acids 123-457 of SEQ ID NO:15) (human, UniProt P32241 123-457)
T3 construct: not shown: By analogy w [CUT]
T3 sequence: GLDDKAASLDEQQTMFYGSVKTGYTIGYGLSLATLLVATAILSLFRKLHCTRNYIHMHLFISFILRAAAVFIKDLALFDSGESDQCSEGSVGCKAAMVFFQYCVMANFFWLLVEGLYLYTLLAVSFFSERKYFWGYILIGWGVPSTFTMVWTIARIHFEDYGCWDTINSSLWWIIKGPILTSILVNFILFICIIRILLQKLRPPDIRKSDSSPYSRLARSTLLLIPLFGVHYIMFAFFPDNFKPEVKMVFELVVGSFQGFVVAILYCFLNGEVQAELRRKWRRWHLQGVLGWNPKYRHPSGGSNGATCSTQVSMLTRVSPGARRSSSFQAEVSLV

T4: GST-fused VPAC1 variant 4-2 (amino acids 231-457 of SEQ ID NO:15) (human, UniProt P32241 231-457)
T4 construct: not shown: By analogy w [CUT]
T4 sequence: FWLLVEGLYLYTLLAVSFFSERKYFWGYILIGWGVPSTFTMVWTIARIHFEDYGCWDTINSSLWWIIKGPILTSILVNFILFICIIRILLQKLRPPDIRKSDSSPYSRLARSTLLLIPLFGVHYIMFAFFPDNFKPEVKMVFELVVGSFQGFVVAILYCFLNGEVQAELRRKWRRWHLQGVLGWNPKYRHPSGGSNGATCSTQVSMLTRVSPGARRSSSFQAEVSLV

B1: murine monoclonal anti-VPAC1 antibody 23A11 (antibody, V domains shown)
VH: EVQLQESGPSLVKPSQTLSLTCSVTGDSITSGYWNWIRKFPGNKLEYMGYIRYSGSTYYSPALKSRFSITRDTSKNQYYLQLNSVTTEDTATYYCSNWAYWGQGTLVTVSA
VL: DIVITQDELSNPVTSGESVSISCRSSKSLLYKDGKTYLNWFLQRPGQSPQLLIYLMSTRASGVSDRFSGSGSGTDFTLEISRVKAEDVGVYYCQQLVEYPLTFGAGTKLELK
notes: Murine hybridoma antibody (BALB/c mice); also called murine 23A11; anti-VPAC1 receptor antibody 23A11
B2: humanized 23A11 antibody (isotype not stated in Example 8) (antibody, V domains shown)
VH: EVQLQESGPGLVKPSQTLSLTCTVSGDSITSGYWNWIRKHPGKGLEYMGYIRYSGSTYYSPSLKSRFTISRDTSKNQYSLKLSSVTAADTATYYCSNWAYWGQGTLVTVSA
VL: B1 VL with D7S, E8P, N11L, S15P, S18P, E79K, K84E, A105Q, L111I
notes: The constant regions are human IgG1 or IgG4; also called humanize 23A11 antibody; rhu23A11

Columns and labels:
[1] = molecular target: T1, murine VPAC1 receptor on mouse bone …; test: immunoblot of mouse bone marrow-derived megakaryocytes
[2] = molecular target: T5, GST-VPAC1 fusion protein (human VPAC1, full length) (human, UniProt P08515 1-218 = GST); test: SPR (BIAcore 1000), GST-VPAC1 immobilized on CM5 chip, antibody injected, 1:1 Langmuir fit; second batch
T5 construct: also called recombinant VPAC1

[3] = molecular target: T5, GST-VPAC1 fusion protein (human VPAC1, …); test: SPR (BIAcore 1000), GST-VPAC1 immobilized; KA = 1/KD; second batch
[4] = molecular target: T2, GST fusion protein of VPAC1 …; test: western blotting of GST-loop fusion proteins
[5] = molecular target: T5, GST-VPAC1 fusion protein (human VPAC1, …); test: SPR (BIAcore 1000), GST-VPAC1 immobilized on CM5 chip, antibody injected, 1:1 Langmuir fit; first batch
[6] = molecular target: T3, GST-fused VPAC1 variant 3-2 (amino …); test: western blotting of GST-fused VPAC1 deletion variants
[7] = molecular target: T4, GST-fused VPAC1 variant 4-2 (amino …); test: as above
[8] = molecular target: T5, GST-VPAC1 fusion protein (human VPAC1, …); test: SPR (BIAcore 1000), GST-VPAC1 immobilized; KA = 1/KD; first batch
[9] = molecular target: T5, GST-VPAC1 fusion protein (human VPAC1, …); test: SPR (BIAcore 1000), GST-VPAC1 immobilized on CM5 chip, antibody injected, 1:1 Langmuir fit
[10] = molecular target: T5, GST-VPAC1 fusion protein (human VPAC1, …); test: SPR (BIAcore 1000), GST-VPAC1 immobilized; KA = 1/KD

Binder | binding result [1] | Kd [2] [nM] | Ka [3] [M⁻¹] | binding result [4] | Kd [5] [nM] | binding result [6] | binding result [7] | Ka [8] [M⁻¹] | Kd [9] [nM] | Ka [10] [M⁻¹]
B1 | binds | 19.9 | 5.04e+07 | binds | 28.3 | binds | binds | 3.54e+07 |  | 
B2 |  |  |  |  |  |  |  |  | 9.82 | 1.02e+08
